Results from PMC11091212.

Key:
[1] = target: Microfibril-associated glycoprotein 4 (human) (UniProt P55083); assay: SPR; Ca2+ form (octamer): MFAP4 or MFAP4_(C34S) amine-coupled on CM5 (Biacore X), elastogenic proteins as analytes 5-100 µg/mL in TBS/Ca2+ (2 mM CaCl2); 1:1 Langmuir fit, KD is the average over five concentrations
[2] = target: Microfibril-associated glycoprotein 4 (human) (UniProt P55083); assay: SPR; Ca2+; settings: domain or fragment

Microfibril-associated glycoprotein 4 (human), sequence (P55083 22-255): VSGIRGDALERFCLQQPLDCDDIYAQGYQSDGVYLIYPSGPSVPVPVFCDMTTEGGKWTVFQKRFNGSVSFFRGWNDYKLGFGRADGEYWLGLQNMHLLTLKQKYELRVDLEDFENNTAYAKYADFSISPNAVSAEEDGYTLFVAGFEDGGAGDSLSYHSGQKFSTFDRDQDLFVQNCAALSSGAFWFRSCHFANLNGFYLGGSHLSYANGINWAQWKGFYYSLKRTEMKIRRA

In the case of “latent transforming growth factor beta binding protein-4, short isoform (natural protein)”, the Kd [1] is reported as 0.015 µM.

For “recombinant N-terminal half of fibrillin-1 (domain or fragment)”, the Kd [1] was 0.0018 µM.

Substance N-terminal half of LTBP4S has a Kd [2] of 0.016 µM.
